Drawing on the RNAGym collection of RNA variant scans (doi:10.7554/elife.90254), this text covers self-cleavage for 21 variants.

The labels stand for the following.
B1: OR4K15 (parent)
chain: GUUAACGGUCAUAGGCCAUGGAAACUAGGAGCACCAUUUCGCUGCCAGUGAAGAAAUGAACAAAGAAAAUCUGGGCCAGGCAGGCAUCAAAAGAAAUAGUCUUGCGCUCAACCAGAAAGUCUGUAAUCAUUUUAAGGGUA

This series covers variants of B1. The series is described as follows: self-cleavage, relative activity (ratio to wild type); higher = more cleavage; in vitro, sequencing; the parent is a self-cleaving ribozyme.
Consider GUUAACGGUCAUAGGCCAUGGAAACUAGGAGCACCAUUUCGCUGCCAGUGAAGAAAUGAACAAAGAAAAUCUGGGCCAGGCAGGCAUCAAAAGAGAUAGUCUUGCGCUCAACCAGAAAGUCUGUAUUCAUUUUAAGGGUA, for which the self-cleavage amounted to 1.42.

As to GUUAACGGUCAUAGGCCAUGGAAACUAGGAGUACCAUUUCGCUGCCAGUGAAGAAACGAACAAAGAAAAUCUGGGCCAGGCAGGCAUCAAAAGAAAUAGUCUUGCGCUCAACCAGAAAGUCUGUAAUCAUUUUAAGGGUA, the self-cleavage was found to be 1.07.

On to GUUAACGGUCAUAGGCCAUGGAAACUAGGAGCACCAUUUCGCUGCCAGUGAAGAAAUGAACGAAGACAAUCUGGGCCAGGCAGGCAUCAAAAGAAAUAGUCUUGCGCUCAACCAGAAAGUCUGUAAUCAUUUUAAGGGUA, for which the self-cleavage is 1.96.

Take GUUAACGGUCAUAGGCCAUGGAAAUUAGGAGCACCAUUUCGCUGCCAGUGAAGAAAUGAACAAAGAAAAUCUGGGCCAGGCAGGCAUCAAAAGAAAUAGUCUUGCGCUUAACCAGAAAGUCUGUAAUCAUUUUAAGGGUA: the self-cleavage amounted to 0.48.

Regarding GUUAACGGUCAUAGGCCAUGGAAACUAGGAGCACCAAGUCGCUGCCAGUGAAGAAAUGAACAAAGAAAAUCUGGGCCAGGCAGGCAUCAAAAGAAAUAGUCUUGCGCUCAACCAGAAAGUCUGUAAUCAUUUUAAGGGUA, the self-cleavage was 2.08.

On to GUUAACGGUCAUAGGCCAUGGAAACUAGGAGCACCAGUUCGCUGCCAGUGAGGAAAUGAACAAAGAAAAUCUGGGCCAGGCAGGCAUCAAAAGAAAUAGUCUUGCGCUCAACCAGAAAGUCUGUAAUCAUUUUAAGGGUA, for which the self-cleavage amounted to 1.48.

With GUUAACGGUCAUAGGACGUGGAAACUAGGAGCACCAUUUCGCUGCCAGUGAAGAAAUGAACAAAGAAAAUCUGGGCCAGGCAGGCAUCAAAAGAAAUAGUCUUGCGCUCAACCAGAAAGUCUGUAAUCAUUUUAAGGGUA, the self-cleavage was determined as 1.18.

On to GUUAACGGUCAUAGGCCAUGGAAACUAGGAGCACCAUUUCGCUGCCAGUGAAGAAAUGAACAAAAAAAAUCCGGGCCAGGCAGGCAUCAAAAGAAAUAGUCUUGCGCUCAACCAGAAAGUCUGUAAUCAUUUUAAGGGUA, for which the self-cleavage came out at 0.21.

For GUUAACGGUCAUAGGCCAUGGAAACUAGGAGCACCAUUUCGCUGCCAGUGAAGAAAUGAACAAAGAAAAUCUGGGCCAGGCAGGCGUCAAAAGAAUUAGUCUUGCGCUCAACCAGAAAGUCUGUAAUCAUUUUAAGGGUA, the self-cleavage was found to be 1.37.

Take GUUAACGGUCAUAGGCCAUGGAAACUAGGAGCACCACUUCGCUGCCAGUGAAGAAAUGAACAAAGAAAAUCUGGGCCAGGCAGGCAUCAAAAGUAAUAGUCUUGCGCUCAACCAGAAAGUCUGUAAUCAUUUUAAGGGUA: the self-cleavage came to 1.67.

Turning to GUUAACAGUCAUAGGCCAUGGAAACUAGGAGCACCAUUUCGCUGCCAGUGAAGAAAUGAACAAAGAAAAUCUGGGCCAGGCAGGCAUCAAAAGAAAUAGUCUUGCGCUCGACCAGAAAGUCUGUAAUCAUUUUAAGGGUA, the self-cleavage came to 0.11.

As to GUUAACGGUCAUAGGCCAUGGAAACUAGGAGCACCAUUUCGCUGCCAGUGAAGAAAUGAACAAAGAAAAUCUGGGCCAGGCCGGCAUCAAAAGAAAUAGUCUUGCGCUCAACCAGAAAGUCUGUAAUCAUUUUAAGGGUA, the self-cleavage is 0.07.

For the variant GUUAACGGUCAUAGGCCAUGGAAACUAGGAGCACCAUUUCGCUGCCAGUGAAGAAAUGAACAAAGAAAAUCUAGGCCAGGCAGGCAUCAAAAGAAAUAGUCUUGCGCUCAACCAGAAAGCCUGUAAUCAUUUUAAGGGUA, the self-cleavage is 0.07.

As to GUUAACGGUCAUAGGCCAUGGAAACUAGGAGCACCAUCUCGCUGCCAGUGAAGAAAUGAACAAAGAAAUUCUGGGCCAGGCAGGCAUCAAAAGAAAUAGUCUUGCGCUCAACCAGAAAGUCUGUAAUCAUUUUAAGGGUA, the self-cleavage was found to be 0.9.

Regarding GUUCACGGUCAUAGGCCAUGGAAACUAGGAGCACCAUUUCGCUGCCAGUGAAGAAAUGAACAAAGAAAAUCUGGGCCAGGCAGGCAUCAAAAGAAAUAGUCUUGCGCUCAGCCAGAAAGUCUGUAAUCAUUUUAAGGGUA, the self-cleavage came to 0.04.

Turning to GUUAACGGUCAUAGGCCAAGGGAACUAGGAGCACCAUUUCGCUGCCAGUGAAGAAAUGAACAAAGAAAAUCUGGGCCAGGCAGGCAUCAAAAGAAAUAGUCUUGCGCUCAACCAGAAAGUCUGUAAUCAUUUUAAGGGUA, the self-cleavage is 1.09.

For GUCAACGGUCAUAGGCCAUGGAAACUAGGAGCACCAUUUCGCUGCCAGUGAAGAAAUGAACAAAGAGAAUCUGGGCCAGGCAGGCAUCAAAAGAAAUAGUCUUGCGCUCAACCAGAAAGUCUGUAAUCAUUUUAAGGGUA, the self-cleavage was 0.97.

GUUAACGGUCAUAGGCCAUGGAAACUAGGAGCACCAUUUCGCUGCCAGUGAAGAAAAGAACAAAGAAAAUCUGGGCCAGGCAGGCAUCAAAAGAAAUAGUCUUGCGCUCAACCAGAAAGUCUGUAAUCAAUUUAAGGGUA: the self-cleavage was 0.77.

Turning to GUUAACGGUCAUAGGCCAAGGAAACUAGGAGCACCAUUUCGCUGCCAGCGAAGAAAUGAACAAAGAAAAUCUGGGCCAGGCAGGCAUCAAAAGAAAUAGUCUUGCGCUCAACCAGAAAGUCUGUAAUCAUUUUAAGGGUA, the self-cleavage worked out at 1.38.

For the variant GUUAACGGUCAUAGGCCAUGGAGACUUGGAGCACCAUUUCGCUGCCAGUGAAGAAAUGAACAAAGAAAAUCUGGGCCAGGCAGGCAUCAAAAGAAAUAGUCUUGCGCUCAACCAGAAAGUCUGUAAUCAUUUUAAGGGUA, the self-cleavage is 1.29.

Regarding GUUAACGGUCAUAGGCCAUGGAAACUAGGAGCACCAUUUCGCUGCCUGUGAAGAAAUGAACAAAGAAAAUCUGGGCCAGGCAGGCAUCAAAAGGAAUAGUCUUGCGCUCAACCAGAAAGUCUGUAAUCAUUUUAAGGGUA, the self-cleavage is 1.22.
